Experiments:
[1] = tested on: HeLa Kyoto; experiment: solubility in G1/S (NP-40 vs SDS abundance) (log2 ratio); higher = more soluble; conditions: cell cycle stage: G1/S
[2] = tested on: HeLa Kyoto; experiment: melting temperature (median over replicates), in situ; higher = more thermally stable
[3] = tested on: HeLa Kyoto; experiment: solubility change mitosis vs G1/S (difference of NP-40 vs SDS log2 ratios) (log2 ratio difference); higher = more soluble in mitosis
[4] = tested on: HeLa Kyoto; experiment: thermal stability score vs G1/S (z-score of summed log2 fold changes over temperatures); higher = more thermally stable than in G1/S
[5] = cell cycle stage: early G1 (4.5 h after nocodazole release)
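For melting temperature (median over replicates), in situ in this document: HeLa Kyoto cells synchronized by double thymidine or nocodazole block, proteins quantified by TMT10plex mass spectrometry, three independent biological replicates.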
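For solubility change mitosis vs G1/S (difference of NP-40 vs SDS log2 ratios) in this document: synchronized HeLa Kyoto cells (double thymidine block for G1/S, nocodazole release for mitosis), protein amounts in NP-40 versus SDS lysates quantified by mass spectrometry, three biological replicates.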
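For solubility in G1/S (NP-40 vs SDS abundance) in this document: HeLa Kyoto cells arrested at G1/S by double thymidine block, proteins quantified by TMT10plex mass spectrometry in mild NP-40 versus SDS extracts, three biological replicates.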
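For thermal stability score vs G1/S (z-score of summed log2 fold changes over temperatures) in this document: synchronized HeLa Kyoto cells, proteins quantified by TMT10plex mass spectrometry, three biological replicates, mitosis taken 0.5 h after nocodazole release, G1/S directly after double thymidine block.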

Sequence | solubility in G1/S (log2) [1] | melting temperature ([2]; cell cycle stage: G1/S) [°C] | melting temperature ([2]; cell cycle stage: mitosis) [°C] | solubility change mitosis (log2) [3] | thermal stability score [4, 5] | thermal stability score ([4]; cell cycle stage: mitosis)
MAYAYLFKYIIIGDTGVGKSCLLLQFTDKRFQPVHDLTIGVEFGARMITIDGKQIKLQIWDTAGQESFRSITRSYYRGAAGALLVYDITRRDTFNHLTTWLEDARQHSNSNMVIMLIGNKSDLESRREVKKEEGEAFAREHGLIFMETSAKTASNVEEAFINTAKEIYEKIQEGVFDINNEANGIKIGPQHAATNATHAGNQGGQQAGGGCC [RAB2A] | -0.194 | 59.9 | 61 | -0.118 | -2.08 | -3.49
MAYNDTDRNQTEKLLKRVRELEQEVQRLKKEQAKNKEDSNIRENSAGAGKTKRAFDFSAHGRRHVALRIAYMGWGYQGFASQENTNNTIEEKLFEALTKTRLVESRQTSNYHRCGRTDKGVSAFGQVISLDLRSQFPRGRDSEDFNVKEEANAAAEEIRYTHILNRVLPPDIRILAWAPVEPSFSARFSCLERTYRYFFPRADLDIVTMDYAAQKYVGTHDFRNLCKMDVANGVINFQRTILSAQVQLVGQSPGEGRWQEPFQLCQFEVTGQAFLYHQVRCMMAILFLIGQGMEKPEIIDELLNIEKNPQKPQYSMAVEFPLVLYDCKFENVKWIYDQEAQEFNITHLQQLWANHAVKTHMLYSMLQGLDTVPVPCGIGPKMDGMTEWGNVKPSVIKQTSAFVEGVKMRTYKPLMDRPKCQGLESRIQHFVRRGRIEHPHLFHEEETKAKRDCNDTLEEENTNLETPTKRVCVDTEIKSII [PUS3] | 0.0227 | 51.6 | 52.7 | -0.169 | 0.0981 | -0.181
MAYQSLRLEYLQIPPVSRAYTTACVLTTAAVQLELITPFQLYFNPELIFKHFQIWRLITNFLFFGPVGFNFLFNMIFLYRYCRMLEEGSFRGRTADFVFMFLFGGFLMTLFGLFVSLVFLGQAFTIMLVYVWSRRNPYVRMNFFGLLNFQAPFLPWVLMGFSLLLGNSIIVDLLGIAVGHIYFFLEDVFPNQPGGIRILKTPSILKAIFDTPDEDPNYNPLPEERPGGFAWGEGQRLGG [DERL2] | -0.0605 | 54.4 |  | -0.0878 | -0.206 | -1.33
MCAARLAAAAAAAQSVYAFSARPLAGGEPVSLGSLRGKVLLIENVASLUGTTVRDYTQMNELQRRLGPRGLVVLGFPCNQFGHQENAKNEEILNSLKYVRPGGGFEPNFMLFEKCEVNGAGAHPLFAFLREALPAPSDDATALMTDPKLITWSPVCRNDVAWNFEKFLVGPDGVPLRRYSRRFQTIDIEPDIEALLSQGPSCA [GPX1] | 0.559 | 56.8 | 56.6 | -0.15 | 1.13 | -0.307
MCASVKYNIRGPALIPRMKTKHRIYYITLFSIVLLGLIATGMFQFWPHSIESSNDWNVEKRSIRDVPVVRLPADSPIPERGDLSCRMHTCFDVYRCGFNPKNKIKVYIYALKKYVDDFGVSVSNTISREYNELLMAISDSDYYTDDINRACLFVPSIDVLNQNTLRIKETAQAMAQLSRWDRGTNHLLFNMLPGGPPDYNTALDVPRDRALLAGGGFSTWTYRQGYDVSIPVYSPLSAEVDLPEKGPGPRQYFLLSSQVGLHPEYREDLEALQVKHGESVLVLDKCTNLSEGVLSVRKRCHKHQVFDYPQVLQEATFCVVLRGARLGQAVLSDVLQAGCVPVVIADSYILPFSEVLDWKRASVVVPEEKMSDVYSILQSIPQRQIEEMQRQARWFWEAYFQSIKAIALATLQIINDRIYPYAAISYEEWNDPPAVKWGSVSNPLFLPLIPPQSQGFTAIVLTYDRVESLFRVITEVSKVPSLSKLLVVWNNQNKNPPEDSLWPKIRVPLKVVRTAENKLSNRFFPYDEIETEAVLAIDDDIIMLTSDELQFGYEVWREFPDRLVGYPGRLHLWDHEMNKWKYESEWTNEVSMVLTGAAFYHKYFNYLYTYKMPGDIKNWVDAHMNCEDIAMNFLVANVTGKAVIKVTPRKKFKCPECTAIDGLSLDQTHMVERSECINKFASVFGTMPLKVVEHRADPVLYKDDFPEKLKSFPNIGSL [EXT2] | -0.537 | 54 | 53.4 | 0.0664 | -1.61 | -1.33
MCGIFAYLNYHVPRTRREILETLIKGLQRLEYRGYDSAGVGFDGGNDKDWEANACKIQLIKKKGKVKALDEEVHKQQDMDLDIEFDVHLGIAHTRWATHGEPSPVNSHPQRSDKNNEFIVIHNGIITNYKDLKKFLESKGYDFESETDTETIAKLVKYMYDNRESQDTSFTTLVERVIQQLEGAFALVFKSVHFPGQAVGTRRGSPLLIGVRSEHKLSTDHIPILYRTARTQIGSKFTRWGSQGERGKDKKGSCNLSRVDSTTCLFPVEEKAVEYYFASDASAVIEHTNRVIFLEDDDVAAVVDGRLSIHRIKRTAGDHPGRAVQTLQMELQQIMKGNFSSFMQKEIFEQPESVVNTMRGRVNFDDYTVNLGGLKDHIKEIQRCRRLILIACGTSYHAGVATRQVLEELTELPVMVELASDFLDRNTPVFRDDVCFFLSQSGETADTLMGLRYCKERGALTVGITNTVGSSISRETDCGVHINAGPEIGVASTKAYTSQFVSLVMFALMMCDDRISMQERRKEIMLGLKRLPDLIKEVLSMDDEIQKLATELYHQKSVLIMGRGYHYATCLEGALKIKEITYMHSEGILAGELKHGPLALVDKLMPVIMIIMRDHTYAKCQNALQQVVARQGRPVVICDKEDTETIKNTKRTIKVPHSVDCLQGILSVIPLQLLAFHLAVLRGYDVDFPRNLAKSVTVE [GFPT1] | -0.169 | 56.1 | 56.2 | -0.226 | -0.54 | 0.683
MCGIFAYMNYRVPRTRKEIFETLIKGLQRLEYRGYDSAGVAIDGNNHEVKERHIQLVKKRGKVKALDEELYKQDSMDLKVEFETHFGIAHTRWATHGVPSAVNSHPQRSDKGNEFVVIHNGIITNYKDLRKFLESKGYEFESETDTETIAKLIKYVFDNRETEDITFSTLVERVIQQLEGAFALVFKSVHYPGEAVATRRGSPLLIGVRSKYKLSTEQIPILYRTCTLENVKNICKTRMKRLDSSACLHAVGDKAVEFFFASDASAIIEHTNRVIFLEDDDIAAVADGKLSIHRVKRSASDDPSRAIQTLQMELQQIMKGNFSAFMQKEIFEQPESVFNTMRGRVNFETNTVLLGGLKDHLKEIRRCRRLIVIGCGTSYHAAVATRQVLEELTELPVMVELASDFLDRNTPVFRDDVCFFISQSGETADTLLALRYCKDRGALTVGVTNTVGSSISRETDCGVHINAGPEIGVASTKAYTSQFISLVMFGLMMSEDRISLQNRRQEIIRGLRSLPELIKEVLSLEEKIHDLALELYTQRSLLVMGRGYNYATCLEGALKIKEITYMHSEGILAGELKHGPLALIDKQMPVIMVIMKDPCFAKCQNALQQVTARQGRPIILCSKDDTESSKFAYKTIELPHTVDCLQGILSVIPLQLLSFHLAVLRGYDVDFPRNLAKSVTVE [GFPT2] | -0.201 | 54.3 | 53.9 | -0.124 | -1.27 | 0.586
MCGRTSCHLPRDVLTRACAYQDRRGQQRLPEWRDPDKYCPSYNKSPQSNSPVLLSRLHFEKDADSSERIIAPMRWGLVPSWFKESDPSKLQFNTTNCRSDTVMEKRSFKVPLGKGRRCVVLADGFYEWQRCQGTNQRQPYFIYFPQIKTEKSGSIGAADSPENWEKVWDNWRLLTMAGIFDCWEPPEGGDVLYSYTIITVDSCKGLSDIHHRMPAILDGEEAVSKWLDFGEVSTQEALKLIHPTENITFHAVSSVVNNSRNNTPECLAPVDLVVKKELRASGSSQRMLQWLATKSPKKEDSKTPQKEESDVPQWSSQFLQKSPLPTKRGTAGLLEQWLKREKEEEPVAKRPYSQ [HMCES] | 0.0685 | 48.6 | 48.4 | -0.0383 | 1.11 | 1.51
MCGSALAFFTAAFVCLQNDRRGPASFLWAAWVFSLVLGLGQGEDNRCASSNAASCARCLALGPECGWCVQEDFISGGSRSERCDIVSNLISKGCSVDSIEYPSVHVIIPTENEINTQVTPGEVSIQLRPGAEANFMLKVHPLKKYPVDLYYLVDVSASMHNNIEKLNSVGNDLSRKMAFFSRDFRLGFGSYVDKTVSPYISIHPERIHNQCSDYNLDCMPPHGYIHVLSLTENITEFEKAVHRQKISGNIDTPEGGFDAMLQAAVCESHIGWRKEAKRLLLVMTDQTSHLALDSKLAGIVVPNDGNCHLKNNVYVKSTTMEHPSLGQLSEKLIDNNINVIFAVQGKQFHWYKDLLPLLPGTIAGEIESKAANLNNLVVEAYQKLISEVKVQVENQVQGIYFNITAICPDGSRKPGMEGCRNVTSNDEVLFNVTVTMKKCDVTGGKNYAIIKPIGFNETAKIHIHRNCSCQCEDNRGPKGKCVDETFLDSKCFQCDENKCHFDEDQFSSESCKSHKDQPVCSGRGVCVCGKCSCHKIKLGKVYGKYCEKDDFSCPYHHGNLCAGHGECEAGRCQCFSGWEGDRCQCPSAAAQHCVNSKGQVCSGRGTCVCGRCECTDPRSIGRFCEHCPTCYTACKENWNCMQCLHPHNLSQAILDQCKTSCALMEQQHYVDQTSECFSSPSYLRIFFIIFIVTFLIGLLKVLIIRQVILQWNSNKIKSSSDYRVSASKKDKLILQSVCTRAVTYRREKPEEIKMDISKLNAHETFRCNF [ITGB8] | -0.0596 | 53.9 | 53.8 | -0.0048 | -0.935 | -1.88
MCSLASGATGGRGAVENEEDLPELSDSGDEAAWEDEDDADLPHGKQQTPCLFCNRLFTSAEETFSHCKSEHQFNIDSMVHKHGLEFYGYIKLINFIRLKNPTVEYMNSIYNPVPWEKEEYLKPVLEDDLLLQFDVEDLYEPVSVPFSYPNGLSENTSVVEKLKHMEARALSAEAALARAREDLQKMKQFAQDFVMHTDVRTCSSSTSVIADLQEDEDGVYFSSYGHYGIHEEMLKDKIRTESYRDFIYQNPHIFKDKVVLDVGCGTGILSMFAAKAGAKKVLGVDQSEILYQAMDIIRLNKLEDTITLIKGKIEEVHLPVEKVDVIISEWMGYFLLFESMLDSVLYAKNKYLAKGGSVYPDICTISLVAVSDVNKHADRIAFWDDVYGFKMSCMKKAVIPEAVVEVLDPKTLISEPCGIKHIDCHTTSISDLEFSSDFTLKITRTSMCTAIAGYFDIYFEKNCHNRVVFSTGPQSTKTHWKQTVFLLEKPFSVKAGEALKGKVTVHKNKKDPRSLTVTLTLNNSTQTYGLQ [PRMT3] | -0.146 | 50.9 | 51 | -0.212 | 0.9 | 1.13

— the supplement of paper PMC5998384
